Results published in the supplement of paper PMC9732359.
± gives the uncertainty stated by the source.

Assay: protein stability index of a GFP-peptide fusion (yeast GPS) (PSI 1-4); higher = more stable; sorted into four equal gates, so the index is relative within each strain
Outline: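 Tiled 17-residue peptides from yeast proteins were fused downstream of GFP on a plasmid that also expresses Cherry, and the pooled library was carried in yeast. Mid-log cultures grown in leucine-free medium were sorted into four equal gates by GFP/Cherry fluorescence ratio. Plasmids from each gate were PCR-amplified and Illumina-sequenced, and reads were assigned to strains by barcodes. Each peptide's protein stability index is the sum, over gates, of the gate's read frequency multiplied by its gate number.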

| Sequence | protein stability index (doa10∆) | protein stability index (pdr5∆) | protein stability index (san1∆) | protein stability index (ubr1∆) |
| --- | --- | --- | --- | --- |
| TSLFGSSSAQQTKSNGT [YJL041W/NSP1] | 3.23 ± 0.11 | 3.4 ± 0.098 | 2.71 ± 0.13 | 3.19 ± 0.073 |
| HEAKERIRQKEVTAGEA [SNF6] | 3 ± 0.18 |  | 2.67 ± 0.25 | 2.6 ± 0.074 |
| SEDHSFRKVKLRVDEVQ [RPS1B] | 3.05 ± 0.094 | 2.96 ± 0.15 | 2.66 ± 0.091 | 3.1 ± 0.067 |
| LPDELTLSYDDISAAIV [DLS1] | 2.56 ± 0.055 | 2.53 ± 0.061 | 2.58 ± 0.073 | 2.67 ± 0.05 |
| EYALPKTYNKLHYCVSC [RPS26A] | 1.24 ± 0.069 | 1.42 ± 0.055 | 1.34 ± 0.12 | 1.41 ± 0.04 |
| DGHLQFLNDVIPTTKNL [DLS1] | 2.96 ± 0.094 | 3.05 ± 0.068 | 2.8 ± 0.072 | 3.04 ± 0.073 |
| SMFGSDQKTGRAKSSSH [RPN4] | 3.02 ± 0.087 | 3.25 ± 0.11 | 3.14 ± 0.071 | 2.9 ± 0.076 |
| VKSFKPHLLKQGLAMVE [RRP42] | 2.01 ± 0.13 | 2.35 ± 0.1 |  | 2.29 ± 0.2 |
| LGCTLVTLLANVRALYM [RMP1] | 1.62 ± 0.17 | 1.85 ± 0.21 | 2.74 ± 0.16 | 2.06 ± 0.073 |
| KSKTSTGKERSKKRKLN [SNM1] | 3.1 ± 0.085 | 3.2 ± 0.097 | 3.644 ± 0.036 | 3.21 ± 0.09 |
| ETITTKRVPNPNFLGNC [SWP82] | 2.68 ± 0.054 | 2.58 ± 0.047 | 2.18 ± 0.05 | 2.32 ± 0.048 |
| ESKMRQQEAKYRNNEPA [YDL088C/ASM4] | 3.13 ± 0.074 | 3.12 ± 0.063 | 2.84 ± 0.075 | 2.88 ± 0.059 |
| ERGQKVKNVKNSDLEFN [ARP9] | 3 ± 0.18 | 1.96 ± 0.09 | 2.17 ± 0.18 | 1.25 ± 0.072 |
| YATQVKTDNTVDKFDFY [RPT3] | 2.39 ± 0.05 | 2.63 ± 0.055 | 2.49 ± 0.052 | 2.62 ± 0.042 |
| KPAFSFGINTNTTKTAD [YLR335W/NUP2] | 2.98 ± 0.098 | 3.09 ± 0.1 | 3.11 ± 0.063 | 3.46 ± 0.064 |
| KRHSYAQSSHIRAIRKV [RPS1A] | 2.399 ± 0.019 | 2.336 ± 0.017 | 2.423 ± 0.022 | 2.446 ± 0.015 |
| TQLSYLISSSLSNLSKD [YCS4] | 1.7 ± 0.041 | 1.65 ± 0.041 | 1.63 ± 0.074 | 2.13 ± 0.045 |
| TPIIFIGTGEHIHDLEK [SRP54] | 1.94 ± 0.071 | 2.42 ± 0.063 | 2.76 ± 0.068 | 2.45 ± 0.056 |
| AVPRDELGRSNYGMIAI [FAS1] | 2.97 ± 0.17 | 3.16 ± 0.15 | 3.28 ± 0.071 | 3.33 ± 0.22 |
| KERTKSLEHELKRSTEL [YIL149C/MLP2] | 3.04 ± 0.15 | 3.36 ± 0.28 | 2.47 ± 0.12 | 3.12 ± 0.094 |
| FKSLIDEDLLDTQTFSV [YGL172W/NUP49] | 3.17 ± 0.17 | 3.05 ± 0.25 |  | 3.76 ± 0.26 |
| SINGGIVVAMTGKDCVA [PUP3] |  | 2.39 ± 0.21 |  |  |

| Sequence | protein stability index (doa10∆) | protein stability index (pdr5∆) | protein stability index (san1∆) | protein stability index (ubr1∆) |
| --- | --- | --- | --- | --- |
| TTQRRYEKAQKDLENAQ [SMC1] | 3.05 ± 0.098 | 3.31 ± 0.069 | 3.2 ± 0.052 | 3.14 ± 0.1 |
| NGILPDDELMNWRRLSG [SSN2] | 2.97 ± 0.087 | 2.9 ± 0.073 | 2.98 ± 0.11 | 3.19 ± 0.091 |
| MATIASEYSSEASNTPI [PRE7] | 2.53 ± 0.094 | 2.76 ± 0.14 | 2.83 ± 0.08 | 2.93 ± 0.13 |
| MIAKEVKTSPDAKKCIA [FAS1] | 1.71 ± 0.15 | 2.95 ± 0.28 | 2.8 ± 0.28 | 2.05 ± 0.12 |
| NVSFVLPDEKSDAMSID [YCG1] | 3.31 ± 0.072 | 3.3 ± 0.051 | 3.25 ± 0.052 | 3.21 ± 0.067 |
| MKQPYVFVKKHHELIKV [SSN2] | 1.33 ± 0.072 | 1.27 ± 0.051 | 1.21 ± 0.08 | 1.2 ± 0.051 |
| IRKQPDDIINNDEPSHK [SIR2] | 2.91 ± 0.065 | 2.95 ± 0.039 | 2.94 ± 0.04 | 2.83 ± 0.039 |
| PTSAQKSAVSHAPAYHR [IRR1] | 2.81 ± 0.14 | 2.69 ± 0.12 |  | 2.89 ± 0.062 |
| SKYCEKSLPLLITVMEK [YCS4] | 1.76 ± 0.052 | 1.86 ± 0.048 | 2.12 ± 0.067 | 1.87 ± 0.039 |
| PNFTGIDKLMLSPSDQF [SSN2] | 1.39 ± 0.08 | 1.33 ± 0.068 |  | 1.61 ± 0.067 |
| SMGTMICGYTRKEGPTI [PRE2] | 3.27 ± 0.078 | 3.21 ± 0.077 | 3.33 ± 0.039 | 2.71 ± 0.069 |
| FMAFINACAKYGRDDME [ISW2] | 2.77 ± 0.2 |  |  |  |
| CSFITQDKMFVSNPIRK [FAS1] | 1.37 ± 0.081 | 1.3 ± 0.073 | 1.25 ± 0.11 | 1.22 ± 0.042 |
| DISATQLPKQLWRNFCR [ITC1] | 2.61 ± 0.054 | 2.68 ± 0.048 | 2.71 ± 0.035 | 2.8 ± 0.036 |
| RMNTIITHPGKMELVYV [SIR4] |  |  |  | 1.21 ± 0.24 |
| SNAVTQTNIWEENWDDV [SEM1] | 3.36 ± 0.085 | 3.46 ± 0.12 | 3.32 ± 0.084 | 3.43 ± 0.14 |
| NYHPNASITPYKLVNKN [RPN4] | 1.84 ± 0.063 | 2.38 ± 0.078 | 2.59 ± 0.083 | 2.05 ± 0.068 |
| ANTGGQDKIELSEEETL [SNF2] | 2.62 ± 0.12 | 2.8 ± 0.25 | 3.08 ± 0.063 | 2.94 ± 0.12 |
| LLISLNILFSLWKLLST [YLR018C/POM34] | 1.63 ± 0.071 | 1.25 ± 0.077 | 1.22 ± 0.21 | 1.18 ± 0.067 |
| NDWQMLEMLKPCVEDGF [RPB2] | 2.79 ± 0.09 | 3.22 ± 0.21 | 3.06 ± 0.12 | 2.68 ± 0.099 |
| INAQGEEIVVVASADYE [PRP8] | 2.91 ± 0.09 | 3.33 ± 0.096 | 2.78 ± 0.07 | 2.73 ± 0.04 |
